Data from patent US20050118674A1, “Engineering of Controlled Deamidation Rates in Peptides, Proteins, and Similar Structures” (priority 2003, published 2005).

assay: First-order nonenzymatic deamidation of pentapeptides in Tris buffer; assay type: physicochemical; conditions: pH 7.4, 37.0° C., 0.15 M Tris HCl; Asn pentapeptides
Outline: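 Pentapeptides containing Asn or Gln in varied flanking sequences incubated at 37° C., pH 7.4, 0.15 M Tris buffer; first-order deamidation rates measured. Some Asn values estimated from remaining data; many Gln values derived from surface fitting rather than measured.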

| Substance | First-Order Deamidation Halftimes of GlyXxxAsnYyyGly [days] |
| --- | --- |
| GlyLysAsnAlaGly (GKNAG; printed: GlyLysAsnAlaGly) | 23.6 |
| GlyLysAsnAmCysGly | 36.5 |
| GlyLysAsnArgGly (GKNRG; printed: GlyLysAsnArgGly) | 57.4 |
| GlyLysAsnAspGly (GKNDG; printed: GlyLysAsnAspGly) | 34.0 |
| GlyLysAsnCysGly (GKNCG; printed: GlyLysAsnCysGly) | 49.0 |
| GlyLysAsnGluGly (GKNEG; printed: GlyLysAsnGluGly) | 72.5 |
| GlyLysAsnGlyGly (GKNGG; printed: GlyLysAsnGlyGly) | 1.02 |
| GlyLysAsnHisGly (GKNHG; printed: GlyLysAsnHisGly) | 10.5 |
| GlyLysAsnIleGly (GKNIG; printed: GlyLysAsnIleGly) | 313 |
| GlyLysAsnLeuGly (GKNLG; printed: GlyLysAsnLeuGly) | 119 |
| GlyLysAsnLysGly (GKNKG; printed: GlyLysAsnLysGly) | 53.5 |
| GlyLysAsnMetGly (GKNMG; printed: GlyLysAsnMetGly) | 60.9 |
| GlyLysAsnPheGly (GKNFG; printed: GlyLysAsnPheGly) | 70.1 |
| GlyLysAsnProGly (GKNPG; printed: GlyLysAsnProGly) | 4940 |
| GlyLysAsnSerGly (GKNSG; printed: GlyLysAsnSerGly) | 15.6 |
| GlyLysAsnThrGly (GKNTG; printed: GlyLysAsnThrGly) | 58.1 |
| GlyLysAsnTrpGly (GKNWG; printed: GlyLysAsnTrpGly) | 98.1 |
| GlyLysAsnTyrGly (GKNYG; printed: GlyLysAsnTyrGly) | 96.7 |
| GlyLysAsnValGly (GKNVG; printed: GlyLysAsnValGly) | 246 |

| Substance | First-Order Deamidation Halftimes of GlyXxxAsnYyyGly [days] |
| --- | --- |
| GlyMetAsnAlaGly (GMNAG; printed: GlyMetAsnAlaGly) | 22.1 |
| GlyMetAsnAmCysGly | 33.8 |
| GlyMetAsnArgGly (GMNRG; printed: GlyMetAsnArgGly) | 58.8 |
| GlyMetAsnAspGly (GMNDG; printed: GlyMetAsnAspGly) | 26.4 |
| GlyMetAsnCysGly (GMNCG; printed: GlyMetAsnCysGly) | 49.6 |
| GlyMetAsnGluGly (GMNEG; printed: GlyMetAsnGluGly) | 72.4 |
| GlyMetAsnGlyGly (GMNGG; printed: GlyMetAsnGlyGly) | 1.04 |
| GlyMetAsnHisGly (GMNHG; printed: GlyMetAsnHisGly) | 10.2 |
| GlyMetAsnIleGly (GMNIG; printed: GlyMetAsnIleGly) | 275 |
| GlyMetAsnLeuGly (GMNLG; printed: GlyMetAsnLeuGly) | 113 |
| GlyMetAsnLysGly (GMNKG; printed: GlyMetAsnLysGly) | 60.4 |
| GlyMetAsnMetGly (GMNMG; printed: GlyMetAsnMetGly) | 56.9 |
| GlyMetAsnPheGly (GMNFG; printed: GlyMetAsnPheGly) | 61.9 |
| GlyMetAsnProGly (GMNPG; printed: GlyMetAsnProGly) | 9300 |
| GlyMetAsnSerGly (GMNSG; printed: GlyMetAsnSerGly) | 15.2 |
| GlyMetAsnThrGly (GMNTG; printed: GlyMetAsnThrGly) | 43.6 |
| GlyMetAsnTrpGly (GMNWG; printed: GlyMetAsnTrpGly) | 92.7 |
| GlyMetAsnTyrGly (GMNYG; printed: GlyMetAsnTyrGly) | 74.0 |
| GlyMetAsnValGly (GMNVG; printed: GlyMetAsnValGly) | 211 |

same assay, conditions: pH 7.4, 37.0 ° C., 0.15 M Tris HCl; Gln pentapeptides; 52 values measured, rest derived from surface fitting

| Substance | First-Order Deamidation Halftimes of GlyXxxGlnYyyGly [days] |
| --- | --- |
| GlyLeuGlnHisGly (GLQHG; printed: GlyLeuGlnHisGly) | 6100 |
| GlyLeuGlnIleGly (GLQIG; printed: GlyLeuGlnIleGly) | 6500 |
| GlyLeuGlnLeuGly (GLQLG; printed: GlyLeuGlnLeuGly) | 6300 |
| GlyLeuGlnLysGly (GLQKG; printed: GlyLeuGlnLysGly) | 6100 |
| GlyLeuGlnMetGly (GLQMG; printed: GlyLeuGlnMetGly) | 4800 |
| GlyLeuGlnPheGly (GLQFG; printed: GlyLeuGlnPheGly) | 8000 |
| GlyLeuGlnProGly (GLQPG; printed: GlyLeuGlnProGly) | 10000 |
| GlyLeuGlnSerGly (GLQSG; printed: GlyLeuGlnSerGly) | 5800 |
| GlyLeuGlnThrGly (GLQTG; printed: GlyLeuGlnThrGly) | 5300 |
| GlyLeuGlnTrpGly (GLQWG; printed: GlyLeuGlnTrpGly) | 16000 |
| GlyLeuGlnTyrGly (GLQYG; printed: GlyLeuGlnTyrGly) | 12000 |
| GlyLeuGlnValGly (GLQVG; printed: GlyLeuGlnValGly) | 6800 |
| GlyLysGlnAlaGly (GKQAG; printed: GlyLysGlnAlaGly) | 4300 |
| GlyLysGlnArgGly (GKQRG; printed: GlyLysGlnArgGly) | 2300 |
| GlyLysGlnAspGly (GKQDG; printed: GlyLysGlnAspGly) | 5900 |
| GlyLysGlnCysGly (GKQCG; printed: GlyLysGlnCysGly) | 1000 |
| GlyLysGlnGluGly (GKQEG; printed: GlyLysGlnGluGly) | 5400 |
| GlyLysGlnGlyGly (GKQGG; printed: GlyLysGlnGlyGly) | 650 |
| GlyLysGlnHisGly (GKQHG; printed: GlyLysGlnHisGly) | 6100 |
| GlyLysGlnIleGly (GKQIG; printed: GlyLysGlnIleGly) | 5400 |
| GlyLysGlnLeuGly (GKQLG; printed: GlyLysGlnLeuGly) | 5300 |

| Substance | First-Order Deamidation Halftimes of GlyXxxGlnYyyGly [days] |
| --- | --- |
| GlyLysGlnLysGly (GKQKG; printed: GlyLysGlnLysGly) | 4000 |
| GlyLysGlnMetGly (GKQMG; printed: GlyLysGlnMetGly) | 4000 |
| GlyLysGlnPheGly (GKQFG; printed: GlyLysGlnPheGly) | 7000 |
| GlyLysGlnProGly (GKQPG; printed: GlyLysGlnProGly) | 7700 |
| GlyLysGlnSerGly (GKQSG; printed: GlyLysGlnSerGly) | 4200 |
| GlyLysGlnThrGly (GKQTG; printed: GlyLysGlnThrGly) | 4100 |
| GlyLysGlnTrpGly (GKQWG; printed: GlyLysGlnTrpGly) | 10000 |
| GlyLysGlnTyrGly (GKQYG; printed: GlyLysGlnTyrGly) | 8800 |
| GlyLysGlnValGly (GKQVG; printed: GlyLysGlnValGly) | 5700 |
| GlyMetGlnAlaGly (GMQAG; printed: GlyMetGlnAlaGly) | 4400 |
| GlyMetGlnArgGly (GMQRG; printed: GlyMetGlnArgGly) | 5100 |
| GlyMetGlnAspGly (GMQDG; printed: GlyMetGlnAspGly) | 6200 |
| GlyMetGlnCysGly (GMQCG; printed: GlyMetGlnCysGly) | 900 |
| GlyMetGlnGluGly (GMQEG; printed: GlyMetGlnGluGly) | 5800 |
| GlyMetGlnGlyGly (GMQGG; printed: GlyMetGlnGlyGly) | 600 |
| GlyMetGlnHisGly (GMQHG; printed: GlyMetGlnHisGly) | 4400 |
| GlyMetGlnIleGly (GMQIG; printed: GlyMetGlnIleGly) | 5000 |
| GlyMetGlnLeuGly (GMQLG; printed: GlyMetGlnLeuGly) | 5000 |
| GlyMetGlnLysGly (GMQKG; printed: GlyMetGlnLysGly) | 4600 |
| GlyMetGlnMetGly (GMQMG; printed: GlyMetGlnMetGly) | 3500 |
| GlyMetGlnPheGly (GMQFG; printed: GlyMetGlnPheGly) | 6600 |
